{
  "source": "paper PMC7854603",
  "about": "“Nucleic acid binding by SAMHD1 contributes to the antiretroviral activity and is enhanced by the GpsN modification”",
  "key": {"SAMHD1 R352A": {"target": "SAMHD1 R352A (UniProt Q9Y3Z3 114-626, R352A)", "sequence (Q9Y3Z3 114-626 R352A)": "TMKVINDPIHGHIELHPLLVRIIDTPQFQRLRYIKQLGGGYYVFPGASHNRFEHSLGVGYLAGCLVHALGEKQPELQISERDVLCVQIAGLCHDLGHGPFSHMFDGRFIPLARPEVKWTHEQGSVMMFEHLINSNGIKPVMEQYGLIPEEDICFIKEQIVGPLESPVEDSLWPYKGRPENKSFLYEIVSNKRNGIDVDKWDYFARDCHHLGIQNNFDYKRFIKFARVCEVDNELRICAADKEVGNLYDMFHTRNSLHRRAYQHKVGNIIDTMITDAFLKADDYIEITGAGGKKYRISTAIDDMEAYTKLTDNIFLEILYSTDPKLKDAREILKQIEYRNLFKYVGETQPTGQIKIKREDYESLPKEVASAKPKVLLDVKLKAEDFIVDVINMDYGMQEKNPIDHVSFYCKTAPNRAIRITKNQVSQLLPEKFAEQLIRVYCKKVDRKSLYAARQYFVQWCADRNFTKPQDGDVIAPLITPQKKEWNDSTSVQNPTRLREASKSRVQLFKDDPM", "experiment": "size-exclusion chromatography; 50 uM GTP + 50 uM dTTP; 2-fold higher stoichiometry than D311A; FA: 50 mM Tris pH 8, 100 mM NaCl, 5 mM MgCl2, 1 mM TCEP, 50 nM 6FAM-oligo (salt series with KCl 50-150 mM); SEC same buffer; NMR: 50 mM Tris pH 7.5, 150 mM NaCl, 5 mM MgCl2, 10% D2O; temperature not stated", "settings": "protein: recombinant; chain copies: 2; label: 5'-6FAM; single strand"}, "SAMHD1 K523A": {"target": "SAMHD1 K523A (UniProt Q9Y3Z3 114-626, K523A)", "sequence (Q9Y3Z3 114-626 K523A)": "as the sequence (Q9Y3Z3 114-626 R352A) above, with A239R, K410A counted along it", "experiment": "size-exclusion chromatography; 50 uM GTP + 50 uM dTTP; 2-fold higher stoichiometry than D311A; FA: 50 mM Tris pH 8, 100 mM NaCl, 5 mM MgCl2, 1 mM TCEP, 50 nM 6FAM-oligo (salt series with KCl 50-150 mM); SEC same buffer; NMR: 50 mM Tris pH 7.5, 150 mM NaCl, 5 mM MgCl2, 10% D2O; temperature not stated", "settings": "protein: recombinant; chain copies: 2; label: 5'-6FAM; single strand"}, "SAMHD1 HD domain WT [1]": {"target": "T1, SAMHD1 HD domain WT (UniProt Q9Y3Z3 114-626)", "T1 sequence (Q9Y3Z3 114-626)": "as the sequence (Q9Y3Z3 114-626 R352A) above, with A239R counted along it", "experiment": "fluorescence anisotropy; tolerant to increasing salt (from 50 mM KCl); FA: 50 mM Tris pH 8, 100 mM NaCl, 5 mM MgCl2, 1 mM TCEP, 50 nM 6FAM-oligo (salt series with KCl 50-150 mM); SEC same buffer; NMR: 50 mM Tris pH 7.5, 150 mM NaCl, 5 mM MgCl2, 10% D2O; temperature not stated", "settings": "protein: recombinant; chain copies: 2; label: 5'-6FAM; single strand"}, "SAMHD1 D311A": {"target": "SAMHD1 D311A (UniProt Q9Y3Z3 114-626, D311A)", "sequence (Q9Y3Z3 114-626 D311A)": "as the sequence (Q9Y3Z3 114-626 R352A) above, with D198A, A239R counted along it", "experiment": "analytical ultracentrifugation; no nucleotides; dimer, S ~6; FA: 50 mM Tris pH 8, 100 mM NaCl, 5 mM MgCl2, 1 mM TCEP, 50 nM 6FAM-oligo (salt series with KCl 50-150 mM); SEC same buffer; NMR: 50 mM Tris pH 7.5, 150 mM NaCl, 5 mM MgCl2, 10% D2O; temperature not stated", "settings": "protein: recombinant; chain copies: 2; label: 5'-6FAM; single strand"}, "SAMHD1 HD domain WT [2]": {"target": "T1, SAMHD1 HD domain WT", "experiment": "X-ray crystallography; FA: 50 mM Tris pH 8, 100 mM NaCl, 5 mM MgCl2, 1 mM TCEP, 50 nM 6FAM-oligo (salt series with KCl 50-150 mM); SEC same buffer; NMR: 50 mM Tris pH 7.5, 150 mM NaCl, 5 mM MgCl2, 10% D2O; temperature not stated", "settings": "protein: recombinant; chain copies: 2; single strand"}, "SAMHD1 HD domain WT [3]": {"target": "T1, SAMHD1 HD domain WT", "experiment": "fluorescence anisotropy; FA: 50 mM Tris pH 8, 100 mM NaCl, 5 mM MgCl2, 1 mM TCEP, 50 nM 6FAM-oligo (salt series with KCl 50-150 mM); SEC same buffer; NMR: 50 mM Tris pH 7.5, 150 mM NaCl, 5 mM MgCl2, 10% D2O; temperature not stated", "settings": "protein: recombinant; chain copies: 2; label: 5'-6FAM; single strand"}, "SAMHD1 HD domain WT [4]": {"target": "T1, SAMHD1 HD domain WT", "experiment": "fluorescence anisotropy; no significant difference from d(TG*TTCA); FA: 50 mM Tris pH 8, 100 mM NaCl, 5 mM MgCl2, 1 mM TCEP, 50 nM 6FAM-oligo (salt series with KCl 50-150 mM); SEC same buffer; NMR: 50 mM Tris pH 7.5, 150 mM NaCl, 5 mM MgCl2, 10% D2O; temperature not stated", "settings": "protein: recombinant; chain copies: 2; label: 5'-6FAM; single strand"}, "SAMHD1 HD domain WT [5]": {"target": "T1, SAMHD1 HD domain WT", "experiment": "fluorescence anisotropy; FA: 50 mM Tris pH 8, 100 mM NaCl, 5 mM MgCl2, 1 mM TCEP, 50 nM 6FAM-oligo (salt series with KCl 50-150 mM); SEC same buffer; NMR: 50 mM Tris pH 7.5, 150 mM NaCl, 5 mM MgCl2, 10% D2O; temperature not stated", "settings": "protein: recombinant; chain copies: 2; label: 5'-6FAM; single strand", "remark": "listed apart in the source"}},
  "data": [
    {"binder": "CGCCT (ssDNA, phosphorothioate at linkages 1-4, mixed Rp/Sp)", "note": "[6FAM-d(C*G*C*C*T)]", "values": [
      {"measurement": "binding result", "setting": "SAMHD1 R352A", "value": "binds"},
      {"measurement": "binding result", "setting": "SAMHD1 K523A", "value": "binds"},
      {"measurement": "binding result", "setting": "SAMHD1 HD domain WT [1]", "value": "binds"},
      {"measurement": "binding result", "setting": "SAMHD1 D311A", "value": "binds"}
    ]},
    {"binder": "CGCCT (ssDNA, phosphorothioate at linkages 1-4, mixed Rp/Sp)", "note": "[d(C*G*C*C*T)]", "values": [
      {"measurement": "binding result", "setting": "SAMHD1 HD domain WT [2]", "value": "binds"}
    ]},
    {"binder": "CGCCU (ssRNA)", "note": "[r(CGCCU)]", "values": [
      {"measurement": "binding result", "setting": "SAMHD1 HD domain WT [2]", "value": "binds"}
    ]},
    {"binder": "CACCT (ssDNA, phosphorothioate?)", "note": "[6FAM oligo with G replaced by A]", "values": [
      {"measurement": "binding result", "setting": "SAMHD1 HD domain WT [3]", "value": "no binding"}
    ]},
    {"binder": "CTCCT (ssDNA, phosphorothioate?)", "note": "[6FAM oligo with G replaced by T]", "values": [
      {"measurement": "binding result", "setting": "SAMHD1 HD domain WT [3]", "value": "no binding"}
    ]},
    {"binder": "UGUUCA (ssRNA, phosphorothioate after G2, mixed Rp/Sp)", "note": "[6FAM-r(UG*UUCA)]", "values": [
      {"measurement": "binding result", "setting": "SAMHD1 HD domain WT [4]", "value": "binds"}
    ]},
    {"binder": "TGTTCA (ssDNA, phosphorothioate after G2, pure Rp)", "note": "[6FAM-d(TG*TTCA) Rp]", "values": [
      {"measurement": "binding signal", "setting": "SAMHD1 HD domain WT [5]", "value": "~10 fold higher affinity than Sp"}
    ]},
    {"binder": "TGTTCA (ssDNA, phosphorothioate after G2, pure Sp)", "note": "[6FAM-d(TG*TTCA) Sp]", "values": [
      {"measurement": "binding signal", "setting": "SAMHD1 HD domain WT [5]", "value": "~0.1 affinity relative to Rp"}
    ]},
    {"binder": "CGCCU (ssRNA, phosphorothioate at linkages 1-4, mixed Rp/Sp)", "note": "[6FAM-r(C*G*C*C*U)]", "values": [
      {"measurement": "binding result", "setting": "SAMHD1 HD domain WT [1]", "value": "binds"}
    ]}
  ]
}
